Laboratory results: the Human Domainome abundance scans (Beltran et al. 2025)
± gives the uncertainty stated by the source.

B1: TOX high mobility group box family member 3, residues 256 to 323; numbered along this chain, O15405 (parent)
chain: QKPVSAYALFFRDTQAAIKGQNPNATFGEVSKIVASMWDSLGEEQKQVYKRKTEAAKKEYLKALAAYR

Variants of: B1
Assay: abundance fitness (aPCA) (normalised: wild type 0, dead -1); higher = more abundant; growth selection in yeast, the domain comes from the species named
Settings: Homo sapiens

Variant | abundance fitness
QKPVSAYALFFRDTQAAIKGQNPNATFGEVSKIVASMWDSLGEEQKQVYKRKTFAAKKEYLKALAAYR [E54F] | -0.193 ± 0.072
QKPVSAYALFFRDTQAAIKGQNPNATFGEVSKIVASMWDSLGEEQKQVYKRKTGAAKKEYLKALAAYR [E54G] | -0.328 ± 0.046
QKPVSAYALFFRDTQAAIKGQNPNATFGEVSKIVASMWDSLGEEQKQVYKRKTIAAKKEYLKALAAYR [E54I] | -0.012 ± 0.082
QKPVSAYALFFRDTQAAIKGQNPNATFGEVSKIVASMWDSLGEEQKQVYKRKTLAAKKEYLKALAAYR [E54L] | -0.102 ± 0.045
QKPVSAYALFFRDTQAAIKGQNPNATFGEVSKIVASMWDSLGEEQKQVYKRKTMAAKKEYLKALAAYR [E54M] | -0.161 ± 0.064
QKPVSAYALFFRDTQAAIKGQNPNATFGEVSKIVASMWDSLGEEQKQVYKRKTNAAKKEYLKALAAYR [E54N] | -0.117 ± 0.07
QKPVSAYALFFRDTQAAIKGQNPNATFGEVSKIVASMWDSLGEEQKQVYKRKTPAAKKEYLKALAAYR [E54P] | -0.118 ± 0.055
QKPVSAYALFFRDTQAAIKGQNPNATFGEVSKIVASMWDSLGEEQKQVYKRKTQAAKKEYLKALAAYR [E54Q] | -0.158 ± 0.07
QKPVSAYALFFRDTQAAIKGQNPNATFGEVSKIVASMWDSLGEEQKQVYKRKTRAAKKEYLKALAAYR [E54R] | -0.203 ± 0.048
QKPVSAYALFFRDTQAAIKGQNPNATFGEVSKIVASMWDSLGEEQKQVYKRKTSAAKKEYLKALAAYR [E54S] | -0.211 ± 0.052
QKPVSAYALFFRDTQAAIKGQNPNATFGEVSKIVASMWDSLGEEQKQVYKRKTTAAKKEYLKALAAYR [E54T] | -0.237 ± 0.064
QKPVSAYALFFRDTQAAIKGQNPNATFGEVSKIVASMWDSLGEEQKQVYKRKTVAAKKEYLKALAAYR [E54V] | -0.239 ± 0.053
QKPVSAYALFFRDTQAAIKGQNPNATFGEVSKIVASMWDSLGEEQKQVYKRKTWAAKKEYLKALAAYR [E54W] | -0.331 ± 0.067
QKPVSAYALFFRDTQAAIKGQNPNATFGEVSKIVASMWDSLGEEQKQVYKRKTECAKKEYLKALAAYR [A55C] | -0.246 ± 0.095
QKPVSAYALFFRDTQAAIKGQNPNATFGEVSKIVASMWDSLGEEQKQVYKRKTEDAKKEYLKALAAYR [A55D] | -0.104 ± 0.07
QKPVSAYALFFRDTQAAIKGQNPNATFGEVSKIVASMWDSLGEEQKQVYKRKTEEAKKEYLKALAAYR [A55E] | 0.076 ± 0.059
QKPVSAYALFFRDTQAAIKGQNPNATFGEVSKIVASMWDSLGEEQKQVYKRKTEFAKKEYLKALAAYR [A55F] | -0.211 ± 0.077
QKPVSAYALFFRDTQAAIKGQNPNATFGEVSKIVASMWDSLGEEQKQVYKRKTEGAKKEYLKALAAYR [A55G] | -0.022 ± 0.051
QKPVSAYALFFRDTQAAIKGQNPNATFGEVSKIVASMWDSLGEEQKQVYKRKTEHAKKEYLKALAAYR [A55H] | 0.015 ± 0.053
QKPVSAYALFFRDTQAAIKGQNPNATFGEVSKIVASMWDSLGEEQKQVYKRKTEIAKKEYLKALAAYR [A55I] | -0.148 ± 0.09

Variant | abundance fitness
QKPVSAYALFFRDTQAAIKGQNPNATFGEVSKIVASMWDSLGEEQKQVYKRKTEKAKKEYLKALAAYR [A55K] | 0.049 ± 0.057
QKPVSAYALFFRDTQAAIKGQNPNATFGEVSKIVASMWDSLGEEQKQVYKRKTELAKKEYLKALAAYR [A55L] | -0.058 ± 0.041
QKPVSAYALFFRDTQAAIKGQNPNATFGEVSKIVASMWDSLGEEQKQVYKRKTENAKKEYLKALAAYR [A55N] | 0.001 ± 0.063
QKPVSAYALFFRDTQAAIKGQNPNATFGEVSKIVASMWDSLGEEQKQVYKRKTEPAKKEYLKALAAYR [A55P] | -0.157 ± 0.051
QKPVSAYALFFRDTQAAIKGQNPNATFGEVSKIVASMWDSLGEEQKQVYKRKTEQAKKEYLKALAAYR [A55Q] | -0.001 ± 0.077
QKPVSAYALFFRDTQAAIKGQNPNATFGEVSKIVASMWDSLGEEQKQVYKRKTERAKKEYLKALAAYR [A55R] | -0.083 ± 0.046
QKPVSAYALFFRDTQAAIKGQNPNATFGEVSKIVASMWDSLGEEQKQVYKRKTESAKKEYLKALAAYR [A55S] | -0.029 ± 0.041
QKPVSAYALFFRDTQAAIKGQNPNATFGEVSKIVASMWDSLGEEQKQVYKRKTETAKKEYLKALAAYR [A55T] | -0.041 ± 0.064
QKPVSAYALFFRDTQAAIKGQNPNATFGEVSKIVASMWDSLGEEQKQVYKRKTEWAKKEYLKALAAYR [A55W] | -0.297 ± 0.058
QKPVSAYALFFRDTQAAIKGQNPNATFGEVSKIVASMWDSLGEEQKQVYKRKTEYAKKEYLKALAAYR [A55Y] | -0.276 ± 0.094
QKPVSAYALFFRDTQAAIKGQNPNATFGEVSKIVASMWDSLGEEQKQVYKRKTEACKKEYLKALAAYR [A56C] | -0.104 ± 0.078
QKPVSAYALFFRDTQAAIKGQNPNATFGEVSKIVASMWDSLGEEQKQVYKRKTEAEKKEYLKALAAYR [A56E] | -0.007 ± 0.077
QKPVSAYALFFRDTQAAIKGQNPNATFGEVSKIVASMWDSLGEEQKQVYKRKTEAFKKEYLKALAAYR [A56F] | -0.548 ± 0.23
QKPVSAYALFFRDTQAAIKGQNPNATFGEVSKIVASMWDSLGEEQKQVYKRKTEAGKKEYLKALAAYR [A56G] | -0.017 ± 0.057
QKPVSAYALFFRDTQAAIKGQNPNATFGEVSKIVASMWDSLGEEQKQVYKRKTEAIKKEYLKALAAYR [A56I] | -0.167 ± 0.21
QKPVSAYALFFRDTQAAIKGQNPNATFGEVSKIVASMWDSLGEEQKQVYKRKTEAKKKEYLKALAAYR [A56K] | 0.17 ± 0.071
QKPVSAYALFFRDTQAAIKGQNPNATFGEVSKIVASMWDSLGEEQKQVYKRKTEALKKEYLKALAAYR [A56L] | -0.109 ± 0.037
QKPVSAYALFFRDTQAAIKGQNPNATFGEVSKIVASMWDSLGEEQKQVYKRKTEAMKKEYLKALAAYR [A56M] | -0.063 ± 0.1
QKPVSAYALFFRDTQAAIKGQNPNATFGEVSKIVASMWDSLGEEQKQVYKRKTEAPKKEYLKALAAYR [A56P] | -0.233 ± 0.086
